PMC9181795, “Ibuprofen Favors Binding of Amyloid-β Peptide to Its Depot, Serum Albumin” (International Journal of Molecular Sciences, 2022)
“Also recorded” adds a separate entry of the source. Each block holds one compound with its values, some of them ahead of it.

Columns and labels:
[1] = target: A21G mutant of amyloid-β peptide 1-40, Flemish variant of Aβ40 (human); assay: SPR; Aβ immobilised by amine coupling on a ProteOn GLH chip (6000-9000 RU), non-covalently bound Aβ washed off (2% SDS, 100 mM HCl, 20 mM EDTA pH 8.0 with 1% SDS) to leave monomeric Aβ; analyte 0.5-8 uM HSA; no IBU; 25 °C; 20 mM Tris-HCl, 140 mM NaCl, […] KCl, 1 mM MgCl2, […] CaCl2, pH 7.4; heterogeneous ligand model (two ligand populations L1 and L2)
[2] = target: A21G mutant of amyloid-β peptide 1-40, Flemish variant of Aβ40 (human); assay: SPR; as a1, but with 100 uM ibuprofen (IBU) in the running buffer: Aβ immobilised by amine coupling and washed to monomer; analyte 0.5-8 uM HSA; 25 °C; 20 mM Tris-HCl, 140 mM NaCl, […] KCl, 1 mM MgCl2, […] CaCl2, pH 7.4; heterogeneous ligand model (two ligand populations L1 and L2)
HSA–Aβ interaction = test system: HSA–Aβ interaction; design: method as in 5 sources, ref [12] = [12]; PMID 30685090; doi:10.1016/j.bbrc.2019.01.081; 12. Litus E.A. Kazakov A.S. Sokolov A.S. Nemashkalova E.L. Galushko E.I. Dzhus U.F. Marchenkov V.V. Galzitskaya O.V. Permyakov E.A. Permyakov S.E. The binding of monomeric amyloid beta peptide to seru ||| ref [12],[13] = [12]; PMID 30685090; doi:10.1016/j.bbrc.2019.01.081; 12. Litus E.A. Kazakov A.S. Sokolov A.S. Nemashkalova E.L. Galushko E.I. Dzhus U.F. Marchenkov V.V. Galzitskaya O.V. Permyakov E.A. Permyakov S.E. The binding of monomeric amyloid beta peptide to seru || [13]; PMID 34072751; doi:10.3390/ijms22115896; 13. Litus E.A. Kazakov A.S. Deryusheva E.I. Nemashkalova E.L. Shevelyova M.P. Nazipova A.A. Permyakova M.E. Raznikova E.V. Uversky V.N. Permyakov S.E. Serotonin promotes serum albumin interaction with ||| ref [7] = [7]; PMID 10347147; doi:10.1074/jbc.274.23.15990; 7. Bohrmann B. Tjernberg L. Kuner P. Poli S. Levet-Trafit B. Naslund J. Richards G. Huber W. Dobeli H. Nordstedt C. Endogenous proteins controlling amyloid beta-peptide polymerization. Possible implic ||| ref [14] = [14]; PMID 29409811; doi:10.1016/j.jmb.2018.01.008; 14. Bode D.C. Stanyon H.F. Hirani T. Baker M.D. Nield J. Viles J.H. Serum albumin’s protective inhibition of amyloid-β fiber formation is suppressed by cholesterol, fatty acids and warfarin J. Mol. Bi ||| ref [13] = [13]; PMID 34072751; doi:10.3390/ijms22115896; 13. Litus E.A. Kazakov A.S. Deryusheva E.I. Nemashkalova E.L. Shevelyova M.P. Nazipova A.A. Permyakova M.E. Raznikova E.V. Uversky V.N. Permyakov S.E. Serotonin promotes serum albumin interaction with; details: cited from earlier work; for effect on HSA affinity toward monomeric Aβ: ref [12],[13]; for effect of HSA ligand on HSA–Aβ interaction: ref [14]

- Kd2 (ligand population L2) [1]: 670 pM
- ka1 (ligand population L1) [1]: 30000 M⁻¹ s⁻¹
- kd2 (ligand population L2) [1]: 1.8e-06 s⁻¹
- Kd1 (ligand population L1) [2]: 8.2 pM
- ka1 (ligand population L1) [2]: 25000 M⁻¹ s⁻¹
- kd1 (ligand population L1) [2]: 2e-07 s⁻¹
- kd2 (ligand population L2) [2]: 1.03e-06 s⁻¹
Compound: human serum albumin (from UniProt P02768 25-609) (natural protein)

Compound: CCCCC/C=C\C/C=C\C/C=C\C/C=C\CCCC(=O)O [arachidonic acid, arachidonic]
- effect on HSA affinity toward monomeric Aβ (HSA–Aβ interaction): enhance HSA affinity toward monomeric Aβ

Compound: CC(=O)CC(c1ccccc1)c1c(O)c2ccccc2oc1=O (stereo not shown) [warfarin]
- effect of HSA ligand on HSA–Aβ interaction (HSA–Aβ interaction): exert the opposite effect; also recorded: act in the opposite direction

Compound: CC(C)CCC[C@@H](C)[C@H]1CC[C@H]2[C@@H]3CC=C4C[C@@H](O)CC[C@]4(C)[C@H]3CC[C@]12C [cholesterol]
- effect of HSA ligand on HSA–Aβ interaction (HSA–Aβ interaction): exert the opposite effect; also recorded: act in the opposite direction

Compound: N[C@@H](Cc1c[nH]c2ccccc12)C(=O)O [tryptophan]
- effect on the HSA–Aβ40/Aβ42 equilibrium (HSA–Aβ interaction; ref [13]): does not affect the HSA–Aβ40/Aβ42 equilibrium

Compound: CCCCC/C=C\C/C=C\CCCCCCCC(=O)O [linoleic acid]
- effect on HSA affinity toward monomeric Aβ (HSA–Aβ interaction): enhance HSA affinity toward monomeric Aβ

Compound: NCCc1c[nH]c2ccc(O)cc12 [serotonin]
- effect on HSA affinity toward monomeric Aβ (HSA–Aβ interaction): enhance HSA affinity toward monomeric Aβ
